Measurements published in the RNAGym collection of RNA variant scans (doi:10.7554/elife.80360).

B1: HDV Ribozyme (parent)
chain: GGCCGGCAUGGUCCCAGCCUCCUCGCUGGCGCCGGCUGGGCAACAUUCCGAGGGGACCGUCCCCUCGGUAAUGGCGAAUGGGACCCA

Variants of: B1
Experiment: self-cleavage, relative activity (ratio to wild type); higher = more cleavage; co-transcriptional

Variant | self-cleavage
G52A U69C | 1.21
G52A C85A | 1.03
G52A C85U | 0.923
G52C G74C | 0.17
G52C G74A | 0.486
G52U G73U | 0.305
G52U G73C | 0.155
G52C U69G | 0.914
G52C U69A | 1.21
A51C C85A | 0.755
A51C C85U | 0.898
A51C C85G | 0.831
G52A U65G | 0.986
G52A U65C | 0.954
G50U U72A | 0.554
G50U U72G | 0.415
G50U U72C | 0.487
G50U C66U | 1.09
G52C A70C | 0.85
G50U G82C | 0.435
A51U U79G | 0.534
G52A A78U | 0.277
G52A A78C | 0.347
A51G C66U | 0.89

Variant | self-cleavage
A51G C66A | 0.889
A51G C66G | 0.989
A51C C57U | 0.969
A51C A71U | 0.892
A51C A71G | 0.918
A51C G73U | 0.567
A51C G73C | 0.293
G50U G73U | 0.402
G52C C85A | 0.969
G52C C85G | 1.03
G52C A71G | 0.884
G52C A71U | 0.831
G52C A71C | 0.332
A51C G54U | 0.659
A51C G54A | 0.716
G52U C66G | 0.472
G52U C66A | 0.618
G52U C66U | 0.737
A51G A87U | 0.952
G52U C63U | 1
G52A G59U | 0.865
G52A G59C | 1.05
G52A G59A | 1.07
G50U G54C | 0.768

Variant | self-cleavage
G50U G54A | 0.85
A51G U60C | 0.931
A51G U60A | 0.852
A51G G54C | 1.37
A51G G54A | 0.831
A51G G54U | 1.07
G52C G55U | 0.966
G52C G55A | 0.901
A51C G81C | 0.193
A51C G81U | 0.38
A51U C84G | 0.443
A51U C84U | 0.716
G52C C86G | 0.997
A51G C86A | 1.16
G52A G73A | 0.602
G52A G73C | 0.337
G52C A87C | 0.85
G52U C64A | 0.911
G52A | 1.02
G52C | 1.01
G52U | 0.938
G52C C84G | 0.978
A51U G82C | 0.282
A51C U79A | 0.959

Variant | self-cleavage
A51C U79G | 0.415
A51G A56G | 1.08
G50U U60A | 0.87
G50U U60C | 0.938
A51G | 0.948
A51U | 0.981
A51C | 0.972
G52A U79C | 0.514
G52C A77C | 0.403
G52C A77U | 0.731
G52C A77G | 0.643
A51U G52C | 0.849
A51U G52U | 0.889
A51C A83G | 0.673
A51C A83U | 0.609
G52C G76U | 1.03
G52C G76C | 1.03
G52U C84A | 0.904
G52U C84G | 0.573
A51U G54C | 0.982
G52U G55U | 0.822
G52U G55A | 0.731
G52U C85U | 0.781
G52U C85G | 0.791

Variant | self-cleavage
G52A C75A | 0.166
G52A C75U | 0.147
G52A C75G | 0.227
G52A A71U | 0.923
G52A A71G | 0.845
G52A G74A | 0.518
G50U G81C | 0.479
G50U G81A | 0.609
G50U G81U | 0.341
A51G G74U | 0.434
A51G G74A | 0.406
G52A C66U | 0.982
G52A C66G | 0.841
A51C A87U | 0.881
A51U U65A | 0.966
A51U U65C | 1.04
A51C C64A | 0.764
A51C C61A | 1.05
G52C A83G | 0.683
G52C A83U | 0.389
A51C C66U | 0.974
A51U C66G | 0.816
A51U G80U | 0.257
G52C G81C | 0.242

Variant | self-cleavage
G52C G81U | 0.579
G52A U72G | 0.749
G52A U72C | 0.591
G52A U72A | 0.423
A51G G68U | 0.831
G50U G74U | 0.427
A51U C62G | 0.131
A51U C62U | 1.09
G50U G55A | 1.11
A51U C86A | 0.848
A51U C86G | 1.21
A51U C86U | 0.831
A51U G68U | 0.9
A51U G68A | 0.787
A51U G68C | 0.554
G50U G59A | 0.852
G50U G59C | 1.14
G52C G73U | 0.415
G52C C61A | 0.857
G52C C75G | 0.104
A51U C61G | 0.831
A51U C61U | 0.781
A51U C61A | 0.938
G52A C64U | 0.992

Variant | self-cleavage
G52A A56G | 0.801
A51G C64A | 0.47
G52C G68U | 0.332
G52U A77G | 0.647
G50U C86U | 0.751
G52C A78C | 0.0723
A51G U69G | 1.09
A51G U69C | 0.9
A51G U69A | 1.11
G52A G53C | 0.743
A51G A70U | 1.22
A51G A70C | 0.974
G50U G67C | 0.617
G50U G67A | 0.959
A51C A78G | 0.751
G52C G67U | 0.753
G52C G67A | 0.62
G52U G68U | 0.415
G52U G68C | 0.185
A51C C63U | 1.05
A51U G73U | 0.504
A51U G73C | 0.415
A51U G73A | 0.607
